Reference: article PMC8897147 (Acta Pharmaceutica Sinica. B, 2021)

B1: receptor activity-modulating protein 3 (protein)
chain: RAGGCNETGMLERLPLCGKAFADMMGKVDVWKWCNLSEFIVYYESFTNCTEMEANVVGCYWPNPLAQGFITGIHRQFFSNCTVDRVHLEDPPDEVLIPLIVIPVVLTVAMAGLVVWRSKRTDTLL
modifications: left off: Ypet, C-terminal, kept
B2: receptor activity-modulating protein 2 (protein)
chain: QPLPTTGTPGSEGGTVKNYETAVQFCWNHYKDQMDPIEKDWCDWAMISRPYSTLRDCLEHFAELFDLGFPNPLAERIIFETHQIHFANCSLVQPTFSDPPEDVLLAMIIAPICLIPFLITLVVWRSKDSEAQA
modifications: left off: Ypet, C-terminal, kept

Key:
SV1 [1] = biological target: T1, SV1 (Homo sapiens, UniProt Q02643); test: cAMP accumulation; conditions: COS-7; RAMP3
T1 sequence (Q02643 90-423 limits assumed): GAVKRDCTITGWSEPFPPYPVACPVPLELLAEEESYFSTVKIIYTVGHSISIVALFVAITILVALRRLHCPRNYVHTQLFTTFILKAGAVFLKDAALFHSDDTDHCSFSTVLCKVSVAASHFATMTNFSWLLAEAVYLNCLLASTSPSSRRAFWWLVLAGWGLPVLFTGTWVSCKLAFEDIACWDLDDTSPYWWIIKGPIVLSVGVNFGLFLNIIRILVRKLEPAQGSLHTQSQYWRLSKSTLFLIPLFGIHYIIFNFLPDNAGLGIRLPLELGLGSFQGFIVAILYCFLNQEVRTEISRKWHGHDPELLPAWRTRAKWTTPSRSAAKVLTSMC

COS-7 cells = test: RAMP cell surface expression; assay type: cell-based
GLP-2R [2] = biological target: T2, GLP-2R (Homo sapiens, UniProt O95838); test: BRET GPCR–RAMP interaction; assay type: binding; conditions: COS-7; receptor-Rluc8:RAMP-Ypet 1:0.25 to 1:16; pH 7.4, 37 °C; mean ± SEM n≥3
T2 sequence (O95838 1-553): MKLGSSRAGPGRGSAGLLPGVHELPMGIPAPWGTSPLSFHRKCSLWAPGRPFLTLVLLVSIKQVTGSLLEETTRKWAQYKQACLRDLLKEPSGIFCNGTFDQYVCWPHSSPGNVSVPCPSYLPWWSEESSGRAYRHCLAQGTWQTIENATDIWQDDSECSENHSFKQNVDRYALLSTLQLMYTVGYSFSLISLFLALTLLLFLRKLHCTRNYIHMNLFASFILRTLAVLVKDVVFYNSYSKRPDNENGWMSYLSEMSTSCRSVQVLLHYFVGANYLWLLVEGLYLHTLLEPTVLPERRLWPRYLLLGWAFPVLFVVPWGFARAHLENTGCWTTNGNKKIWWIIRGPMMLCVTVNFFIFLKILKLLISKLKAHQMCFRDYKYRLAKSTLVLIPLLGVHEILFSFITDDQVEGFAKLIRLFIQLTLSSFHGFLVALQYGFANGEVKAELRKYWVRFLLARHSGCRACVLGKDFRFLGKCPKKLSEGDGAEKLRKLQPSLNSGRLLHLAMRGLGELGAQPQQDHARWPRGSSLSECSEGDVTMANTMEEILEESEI

CLR = CLR (Homo sapiens, UniProt Q16602); test: BRET GPCR–RAMP interaction; assay type: binding; conditions: COS-7; receptor-Rluc8:RAMP-Ypet 1:0.25 to 1:16; pH 7.4, 37 °C; mean ± SEM n≥3
SV1 [3] = biological target: T1, SV1; test: BRET GPCR–RAMP interaction; assay type: binding; conditions: COS-7; receptor-Rluc8:RAMP-Ypet 1:0.25 to 1:16; pH 7.4, 37 °C; mean ± SEM n≥3
GLP-1R = GLP-1R (Homo sapiens, UniProt P43220); test: BRET GPCR–RAMP interaction; assay type: binding; conditions: COS-7; receptor-Rluc8:RAMP-Ypet 1:0.25 to 1:16; pH 7.4, 37 °C; mean ± SEM n≥3
GHRHR [4] = biological target: T3, GHRHR (Homo sapiens, UniProt Q02643); test: cAMP accumulation; conditions: COS-7; RAMP3
T3 sequence (Q02643 23-423): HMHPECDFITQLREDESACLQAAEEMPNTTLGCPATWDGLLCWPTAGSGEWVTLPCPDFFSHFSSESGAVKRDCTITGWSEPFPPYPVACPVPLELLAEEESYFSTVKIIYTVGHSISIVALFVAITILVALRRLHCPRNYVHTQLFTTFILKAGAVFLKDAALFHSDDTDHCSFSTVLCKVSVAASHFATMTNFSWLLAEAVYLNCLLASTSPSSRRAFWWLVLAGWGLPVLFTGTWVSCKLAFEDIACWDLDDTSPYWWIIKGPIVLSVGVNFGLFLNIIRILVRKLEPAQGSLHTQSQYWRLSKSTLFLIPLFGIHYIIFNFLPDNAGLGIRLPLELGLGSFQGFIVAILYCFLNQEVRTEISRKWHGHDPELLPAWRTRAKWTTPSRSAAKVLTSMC

GCGR [5] = biological target: T4, GCGR (Homo sapiens, UniProt P47871); test: BRET GPCR–RAMP interaction; assay type: binding; conditions: COS-7; receptor-Rluc8:RAMP-Ypet 1:0.25 to 1:16; pH 7.4, 37 °C; mean ± SEM n≥3
GIPR = biological target: T5, GIPR (Homo sapiens, UniProt P48546); test: BRET GPCR–RAMP interaction; assay type: binding; conditions: COS-7; receptor-Rluc8:RAMP-Ypet 1:0.25 to 1:16; pH 7.4, 37 °C; mean ± SEM n≥3
T5 sequence (P48546 22-466): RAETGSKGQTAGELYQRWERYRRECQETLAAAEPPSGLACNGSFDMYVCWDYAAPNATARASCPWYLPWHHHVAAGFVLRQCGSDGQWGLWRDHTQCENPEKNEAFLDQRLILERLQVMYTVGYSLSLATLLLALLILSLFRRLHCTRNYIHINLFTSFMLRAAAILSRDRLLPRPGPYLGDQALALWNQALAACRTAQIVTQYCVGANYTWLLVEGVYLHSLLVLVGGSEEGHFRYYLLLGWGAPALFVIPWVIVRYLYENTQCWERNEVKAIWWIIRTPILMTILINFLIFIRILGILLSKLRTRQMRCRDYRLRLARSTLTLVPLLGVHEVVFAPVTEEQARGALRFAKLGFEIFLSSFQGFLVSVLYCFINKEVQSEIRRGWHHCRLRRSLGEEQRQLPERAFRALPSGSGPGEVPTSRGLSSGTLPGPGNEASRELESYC

SCTR = test: BRET GPCR–RAMP interaction; assay type: binding; conditions: COS-7; receptor-Rluc8:RAMP-Ypet 1:0.25 to 1:16; pH 7.4, 37 °C; mean ± SEM n≥3
GHRHR [6] = biological target: T3, GHRHR; test: BRET GPCR–RAMP interaction; assay type: binding; conditions: COS-7; receptor-Rluc8:RAMP-Ypet 1:0.25 to 1:16; pH 7.4, 37 °C; mean ± SEM n≥3
GLP-2R [7] = biological target: T2, GLP-2R; test: Gαq activation; assay type: cell-based; conditions: HEK293A; RAMP2
GCGR [8] = biological target: T4, GCGR; conditions: CHO-K1 ref [38]; cited from earlier work
GCGR [9] = biological target: T4, GCGR; conditions: CHO-K1 ref [38]; cited from earlier work; remark: listed apart in the source

T4 sequence (P47871 26-477, species assumed): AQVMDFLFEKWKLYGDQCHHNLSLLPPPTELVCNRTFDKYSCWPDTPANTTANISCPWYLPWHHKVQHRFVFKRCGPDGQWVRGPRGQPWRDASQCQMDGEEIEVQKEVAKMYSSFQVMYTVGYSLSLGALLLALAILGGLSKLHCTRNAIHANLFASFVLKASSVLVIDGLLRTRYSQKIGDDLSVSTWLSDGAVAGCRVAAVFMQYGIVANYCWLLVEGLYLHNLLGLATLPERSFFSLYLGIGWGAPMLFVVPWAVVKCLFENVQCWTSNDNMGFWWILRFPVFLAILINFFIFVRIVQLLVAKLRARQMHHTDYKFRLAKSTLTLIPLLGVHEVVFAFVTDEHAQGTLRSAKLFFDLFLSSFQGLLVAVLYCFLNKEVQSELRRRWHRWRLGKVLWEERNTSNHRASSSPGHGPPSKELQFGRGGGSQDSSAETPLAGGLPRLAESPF
GLP-1R, sequence (P43220 24-463): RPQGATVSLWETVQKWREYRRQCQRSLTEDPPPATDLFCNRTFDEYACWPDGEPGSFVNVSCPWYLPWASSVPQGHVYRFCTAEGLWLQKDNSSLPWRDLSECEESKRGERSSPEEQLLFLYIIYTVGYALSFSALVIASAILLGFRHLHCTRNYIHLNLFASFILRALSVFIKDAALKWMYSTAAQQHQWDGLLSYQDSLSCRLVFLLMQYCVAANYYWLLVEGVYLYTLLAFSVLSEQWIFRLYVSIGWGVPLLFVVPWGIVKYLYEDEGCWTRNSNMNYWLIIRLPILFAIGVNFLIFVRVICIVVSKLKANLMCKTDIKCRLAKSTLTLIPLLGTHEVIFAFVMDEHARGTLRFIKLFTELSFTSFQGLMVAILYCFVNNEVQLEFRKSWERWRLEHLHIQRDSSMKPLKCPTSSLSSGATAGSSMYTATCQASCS
CLR, sequence (Q16602 23-461): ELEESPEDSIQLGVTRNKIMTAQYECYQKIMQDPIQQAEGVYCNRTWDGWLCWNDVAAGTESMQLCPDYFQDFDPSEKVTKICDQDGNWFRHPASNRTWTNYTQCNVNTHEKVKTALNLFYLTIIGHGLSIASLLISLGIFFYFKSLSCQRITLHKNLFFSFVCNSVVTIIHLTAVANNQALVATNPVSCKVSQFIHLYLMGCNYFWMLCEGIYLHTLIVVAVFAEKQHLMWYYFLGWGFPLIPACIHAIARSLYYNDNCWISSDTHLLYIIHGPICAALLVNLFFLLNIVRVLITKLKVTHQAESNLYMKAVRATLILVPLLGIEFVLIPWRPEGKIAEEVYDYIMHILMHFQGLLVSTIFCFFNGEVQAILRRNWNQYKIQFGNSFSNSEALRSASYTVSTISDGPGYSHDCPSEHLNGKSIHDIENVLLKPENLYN

Molecule	effect of RAMP on cAMP response (SV1 [1])	RAMP cell surface expression (COS-7 cells; co-expression with GCGR, FLAG-RAMP)	RAMP cell surface expression (COS-7 cells; co-expression with SCTR, FLAG-RAMP, effect of receptor on RAMP3)	RAMP cell surface expression (COS-7 cells; co-expression with SV1, FLAG-RAMP)	Bmax (maximum measured BRET value) (GLP-2R [2])	Bmax (maximum measured BRET value) (CLR)	Bmax (maximum measured BRET value) (SV1 [3])	Bmax (maximum measured BRET value) (GLP-1R)	effect of RAMP on cAMP response (GHRHR [4])	Bmax (maximum measured BRET value) (GCGR [5])	Bmax (maximum measured BRET value) (GIPR)	Bmax (maximum measured BRET value) (SCTR)	Bmax (maximum measured BRET value) (GHRHR [6])	RAMP cell surface expression (COS-7 cells; co-expression with glucagon receptor family members, FLAG-RAMP)	effect of RAMP on potency, Gαq activation (GLP-2R [7])	Gαq signaling (GCGR [8])	β-arrestin recruitment (GCGR [9])
B1	marked response	negative	negative	negative	0.689 ± 0.128	0.511 ± 0.058	1.842 ± 0.754	0.862 ± 0.100	no effect	1.102 ± 0.165	0.729 ± 0.061	0.995 ± 0.058	0.948 ± 0.139	–	–	–	–
B2	–	–	–	–	0.567 ± 0.234	0.468 ± 0.042	0.843 ± 0.102	0.397 ± 0.092	–	0.578 ± 0.072	0.474 ± 0.122	0.434 ± 0.051	0.393 ± 0.025	negligible	nominal reduction	attenuated Gαq signaling	abolished β-arrestin recruitment
